Laboratory results: article PMC10873202, “Structural mechanisms of autoinhibition and substrate recognition by the ubiquitin ligase HACE1” (Nature Structural & Molecular Biology, 2024)
Changes are numbered by the printed parent chain. Values belong to the binder of their own block, whether it stands above or below them.

Experiments:
[1] = molecular target: T1, HACE1 full length, wild type (HACE1 FL) (human), Q8IYU2; experiment: mass photometry; HACE1 samples at 20–40 nM in 25 mM HEPES (pH 8.0), 150 mM NaCl; One^MP mass photometer, BSA calibration; conditions: remark: other sources report otherwise
T1 chain: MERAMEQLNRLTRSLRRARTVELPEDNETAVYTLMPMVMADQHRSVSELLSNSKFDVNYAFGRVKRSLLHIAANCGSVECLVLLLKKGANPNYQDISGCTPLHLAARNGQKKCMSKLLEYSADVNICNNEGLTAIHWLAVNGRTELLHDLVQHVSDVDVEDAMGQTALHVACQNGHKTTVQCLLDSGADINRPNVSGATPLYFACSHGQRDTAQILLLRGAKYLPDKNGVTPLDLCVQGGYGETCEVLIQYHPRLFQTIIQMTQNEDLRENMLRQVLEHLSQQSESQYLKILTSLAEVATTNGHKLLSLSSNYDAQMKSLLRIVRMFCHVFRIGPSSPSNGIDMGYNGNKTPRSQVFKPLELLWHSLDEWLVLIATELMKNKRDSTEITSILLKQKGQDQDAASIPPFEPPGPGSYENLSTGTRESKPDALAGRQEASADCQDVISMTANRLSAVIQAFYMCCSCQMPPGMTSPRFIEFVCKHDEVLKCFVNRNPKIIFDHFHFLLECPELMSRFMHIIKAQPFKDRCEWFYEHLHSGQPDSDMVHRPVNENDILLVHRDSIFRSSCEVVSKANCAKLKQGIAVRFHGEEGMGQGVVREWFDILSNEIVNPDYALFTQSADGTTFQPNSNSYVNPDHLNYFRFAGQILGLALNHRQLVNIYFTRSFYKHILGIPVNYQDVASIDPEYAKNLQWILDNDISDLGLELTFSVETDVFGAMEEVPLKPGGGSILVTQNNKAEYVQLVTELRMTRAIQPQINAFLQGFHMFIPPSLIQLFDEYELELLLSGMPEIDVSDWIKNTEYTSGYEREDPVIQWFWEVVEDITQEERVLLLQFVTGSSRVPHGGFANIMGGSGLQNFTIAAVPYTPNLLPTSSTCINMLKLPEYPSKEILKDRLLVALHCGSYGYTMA

[2] = molecular target: T1, HACE1 full length, wild type (HACE1 FL) …; experiment: SEC; analytical SEC, 20 μM HACE1, 50 mM HEPES (pH 8.0), 150 mM NaCl, 1 mM DTT, Superdex 200 Increase 3.2/300, 4 °C; conditions: remark: other sources report otherwise
[3] = molecular target: the molecule itself; experiment: mass photometry; HACE1 samples at 20–40 nM in 25 mM HEPES (pH 8.0), 150 mM NaCl; One^MP mass photometer, BSA calibration

stoichiometry N [1]: 2 | stoichiometry N [2]: 2
B1: HACE1 full length, wild type (HACE1 FL), Q8IYU2 1-909 (enzyme)
chain: T1 chain

B2: HACE1 L8D (enzyme, human, UniProt Q8IYU2 1-909, looked up)
chain: T1 chain with L8D
notes: HACE1, human, full-length variant; source: E. coli BL21(DE3), purified (IMAC, tag removal, SEC); not shown: His6 (pSKB2) or His10-tandem Z (pN-HZ10-ZZ(3)), N-terminal, cleaved
binding result [3]: binds

B3: HACE1 L8A (enzyme, human, UniProt Q8IYU2 1-909, looked up)
chain: T1 chain with L8A
notes: HACE1, human, full-length variant; also called Leu8 substituted with alanine; source: E. coli BL21(DE3), purified (IMAC, tag removal, SEC); not shown: His6 (pSKB2) or His10-tandem Z (pN-HZ10-ZZ(3)), N-terminal, cleaved
binding result [3]: binds

B4: HACE1 T12E (enzyme, human, UniProt Q8IYU2 1-909, looked up)
chain: T1 chain with T12E
notes: HACE1, human, control phospho-mimetic variant compared with the wild-type dimer ('FL'); source: E. coli BL21(DE3), purified (IMAC, tag removal, SEC); not shown: His6 (pSKB2) or His10-tandem Z (pN-HZ10-ZZ(3)), N-terminal, cleaved
binding result [3]: binds

B5: HACE1 L11A (enzyme, human, UniProt Q8IYU2 1-909, looked up)
chain: T1 chain with L11A
notes: HACE1, human, full-length variant; also called Leu11 substituted with alanine; source: E. coli BL21(DE3), purified (IMAC, tag removal, SEC); not shown: His6 (pSKB2) or His10-tandem Z (pN-HZ10-ZZ(3)), N-terminal, cleaved
binding result [3]: binds

B6: HACE1 L704D (enzyme, human, UniProt Q8IYU2 1-909, looked up)
chain: T1 chain with L704D
notes: HACE1, human, full-length variant (HECT N-lobe); source: E. coli BL21(DE3), purified (IMAC, tag removal, SEC); not shown: His6 (pSKB2) or His10-tandem Z (pN-HZ10-ZZ(3)), N-terminal, cleaved
binding result [3]: binds

B7: HACE1 L15A (enzyme, human, UniProt Q8IYU2 1-909, looked up)
chain: T1 chain with L15A
notes: HACE1, human, full-length variant; also called Leu15 substituted with alanine; source: E. coli BL21(DE3), purified (IMAC, tag removal, SEC); not shown: His6 (pSKB2) or His10-tandem Z (pN-HZ10-ZZ(3)), N-terminal, cleaved
binding result [3]: binds
